From IntAct's records for PubMed 29880681

B1: LIM domain and actin-binding protein 1 (Mus musculus), Q9ERG0-1 (parent)
chain: MESTPFNRRQWTSLSLRVTAKELSLVNKNKSSAIVEIFSKYQKAAEEANMERKKNNPESLPQHFRRGTLSVLKKKWENPVAGAEFHTDSLPNSSSEGGHTADYPPAEVTDKPAPGVRADREEHTQPKPRFGSRPEAVIQSRYPRSENSHDFKAQATESQKMENCLGDSRHEAEKPETSENTETSGKIEKYNVPLNRLKMMFEKGEHNQTKSLWTQSRNAGGRRLSENNCSLDDWEIGAGHLSSSAFNSEKNESKRNLELPRLSETSIKDRMAKYQAAVSKQSSPASYTNELKTSESKTHKWEQKENVPPGPEACSVHQEGSKVSTTENSLVALSVPAEDDTCNSQVKSEAQQPMHPKPLSPDARTSSLPESSPSKTAKKFQAPAKESCVECQKTVYPMERLLANQQVFHISCFRCSYCNNKLSLGTYASLHGRIYCKPHFNQLFKSKGNYDEGFGHKQHKDLWASKSDNEETLGRPAQPPNAGESPHSPGVEDAPIAKVGVLAASMEAKASSQREREDKPAETKKLRIAWPPPAELGGSGSALEEGIKVSKPKWPPEDDVCKTEAPEDVDLDLKKLRRSSSLKERSRPFTVAASFRTSSIKSPKASSPSLRKGWSESEQSEEFGGGIATMERKQTENARPSGEKENVGKSRWQGEEVPRSKDRSSFELESENFMENGANIAEDDNHVHAQQSPLEPEAPGWSGFVDTTAAKEFTTQNQKSQDVGFWEGEVVRELSVEEQIKRNRYYDEDEDEE
partner: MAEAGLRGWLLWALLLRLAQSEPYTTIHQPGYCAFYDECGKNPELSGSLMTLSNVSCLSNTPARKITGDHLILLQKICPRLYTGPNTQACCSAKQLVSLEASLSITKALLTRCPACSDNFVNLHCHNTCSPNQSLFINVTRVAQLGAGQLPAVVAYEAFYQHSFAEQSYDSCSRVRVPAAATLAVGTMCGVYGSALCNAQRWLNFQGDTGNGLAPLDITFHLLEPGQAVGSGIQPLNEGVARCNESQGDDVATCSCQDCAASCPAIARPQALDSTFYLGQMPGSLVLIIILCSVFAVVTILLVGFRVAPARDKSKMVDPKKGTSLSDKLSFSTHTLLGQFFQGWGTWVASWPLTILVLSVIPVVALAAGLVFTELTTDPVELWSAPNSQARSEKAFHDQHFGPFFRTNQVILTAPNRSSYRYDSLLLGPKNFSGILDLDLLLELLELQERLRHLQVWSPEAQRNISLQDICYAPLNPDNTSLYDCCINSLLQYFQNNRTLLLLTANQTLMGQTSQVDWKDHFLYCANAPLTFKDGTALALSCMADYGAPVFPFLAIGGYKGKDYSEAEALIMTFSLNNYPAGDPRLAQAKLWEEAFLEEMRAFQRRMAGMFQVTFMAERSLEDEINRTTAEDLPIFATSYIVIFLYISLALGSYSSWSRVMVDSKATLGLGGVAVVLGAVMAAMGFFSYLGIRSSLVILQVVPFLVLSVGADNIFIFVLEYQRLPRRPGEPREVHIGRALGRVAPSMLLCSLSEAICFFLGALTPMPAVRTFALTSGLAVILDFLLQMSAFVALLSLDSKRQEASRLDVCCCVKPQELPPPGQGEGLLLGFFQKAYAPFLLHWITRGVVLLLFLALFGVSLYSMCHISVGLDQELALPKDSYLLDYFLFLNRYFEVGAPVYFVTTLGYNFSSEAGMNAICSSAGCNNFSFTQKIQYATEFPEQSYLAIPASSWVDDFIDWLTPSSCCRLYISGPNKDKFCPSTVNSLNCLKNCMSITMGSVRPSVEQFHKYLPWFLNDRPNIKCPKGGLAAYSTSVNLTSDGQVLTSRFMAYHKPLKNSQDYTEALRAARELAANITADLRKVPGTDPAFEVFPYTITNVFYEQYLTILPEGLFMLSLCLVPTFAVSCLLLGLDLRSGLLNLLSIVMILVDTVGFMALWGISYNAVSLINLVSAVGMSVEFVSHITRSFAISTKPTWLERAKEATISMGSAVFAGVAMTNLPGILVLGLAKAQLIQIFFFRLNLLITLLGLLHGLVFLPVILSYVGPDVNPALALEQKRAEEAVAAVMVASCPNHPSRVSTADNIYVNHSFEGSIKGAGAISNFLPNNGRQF
B2: NPC1-like intracellular cholesterol transporter 1 (Homo sapiens), Q9UHC9-2 (parent)
chain: B1 partner

Variants of: B1
Conditions: with NPC1L1, Q9UHC9-2

effect of a mutation on the interaction | Variant
disrupting interaction | C164A;L165A;G166A

Variants of: B1
Conditions: with NPC1L1, Q9UHC9-2
Remark: another data set of the same source

effect of a mutation on the interaction | Variant
disrupting interaction strength | C164A;L165A;G166A

Variants of: B2
Conditions: with Lima1, Q9ERG0-1

effect of a mutation on the interaction | Variant
disrupting interaction | Q1277A;K1278A;R1279A
